Reference: publication PMC9908899, “TRIM40 is a pathogenic driver of inflammatory bowel disease subverting intestinal barrier integrity” (Nature Communications, 2023)

Molecular target: T1, ROCK1 kinase domain (residue 1-415) protein (human, UniProt Q13464 1-415)
T1 construct: ROCK1 kinase domain, residues 1-415, expressed in Sf9 cells; source: Spodoptera frugiperda cells (Sf9)
Experiment: SPR; Biacore T200; ROCK1 kinase domain immobilised on CM5 chip by amine coupling (3400 RU); full-length TRIM40 injected at eight concentrations, 30 μl/min, HBS-EP+ buffer (10 mM HEPES, 150 mM NaCl, 3 mM EDTA, 0.05% P20), 25 °C
Conditions: both partners purified

T1 sequence (Q13464 1-415): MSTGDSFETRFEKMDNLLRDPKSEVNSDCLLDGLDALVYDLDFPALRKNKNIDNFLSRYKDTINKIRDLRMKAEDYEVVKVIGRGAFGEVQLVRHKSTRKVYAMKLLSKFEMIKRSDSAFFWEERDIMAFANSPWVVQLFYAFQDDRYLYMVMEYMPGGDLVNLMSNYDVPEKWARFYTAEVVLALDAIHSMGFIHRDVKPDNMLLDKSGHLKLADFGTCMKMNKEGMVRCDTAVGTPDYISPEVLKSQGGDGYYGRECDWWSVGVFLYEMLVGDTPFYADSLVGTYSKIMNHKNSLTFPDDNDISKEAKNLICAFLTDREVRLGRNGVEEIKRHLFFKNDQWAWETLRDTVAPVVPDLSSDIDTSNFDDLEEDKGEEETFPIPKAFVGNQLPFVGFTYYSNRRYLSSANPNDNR

B1: Full length TRIM40 protein (recombinant, for SPR) (natural protein, human, UniProt Q6P9F5 1-258, looked up)
chain: MIPLQKDNQEEGVCPICQESLKEAVSTNCGHLFCRVCLTQHVEKASASGVFCCPLCRKPCSEEVLGTGYICPNHQKRVCRFCEESRLLLCVECLVSPEHMSHHELTIENALSHYKERLNRRSRKLRKDIAELQRLKAQQEKKLQALQFQVDHGNHRLEAGPESQHQTREQLGALPQQWLGQLEHMPAEAARILDISRAVTQLRSLVIDLERTAKELDTNTLKNAGDLLNRSAPQKLEVIYPQLEKGVSELLLQPPQKL
notes: full length TRIM40 expressed in E. coli BL21 (DE3); source: Escherichia coli BL21 (DE3)
  Kd: 2250 nM
